T1: P60 (huANGPTL7-Fibrinogen-his) (human, UniProt O43827 129-343)
T1 construct: also called human ANGPTL7 fibrinogen domain; not shown: C-terminal short linker and His tag
T1 sequence: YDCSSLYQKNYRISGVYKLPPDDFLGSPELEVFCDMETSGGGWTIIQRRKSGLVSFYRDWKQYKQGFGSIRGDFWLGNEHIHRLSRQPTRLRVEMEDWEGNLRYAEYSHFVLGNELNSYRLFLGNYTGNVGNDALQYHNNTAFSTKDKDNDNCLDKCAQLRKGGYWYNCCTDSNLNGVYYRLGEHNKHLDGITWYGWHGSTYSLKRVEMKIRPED

T2: P66 (rabbit ANGPTL7-his) (rabbit, UniProt G1T4P1 27-344)
T2 construct: mature; also called rabbit ANGPTL7 protein
T2 sequence: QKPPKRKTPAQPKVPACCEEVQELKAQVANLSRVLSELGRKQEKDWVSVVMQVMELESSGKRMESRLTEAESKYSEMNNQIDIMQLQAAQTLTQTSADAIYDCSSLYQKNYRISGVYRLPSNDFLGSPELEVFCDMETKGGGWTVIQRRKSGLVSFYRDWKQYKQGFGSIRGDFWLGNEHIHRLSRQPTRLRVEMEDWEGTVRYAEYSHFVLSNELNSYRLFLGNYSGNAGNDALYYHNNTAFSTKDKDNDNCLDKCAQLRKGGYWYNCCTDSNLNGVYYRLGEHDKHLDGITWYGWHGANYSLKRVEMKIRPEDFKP

T3: muANGPTL7-his (R&D Systems) (mouse, UniProt Q8R1Q3 22-337, limits assumed)
T3 construct: Bought protein; also called mouse ANGPTL7 protein
T3 sequence (looked up): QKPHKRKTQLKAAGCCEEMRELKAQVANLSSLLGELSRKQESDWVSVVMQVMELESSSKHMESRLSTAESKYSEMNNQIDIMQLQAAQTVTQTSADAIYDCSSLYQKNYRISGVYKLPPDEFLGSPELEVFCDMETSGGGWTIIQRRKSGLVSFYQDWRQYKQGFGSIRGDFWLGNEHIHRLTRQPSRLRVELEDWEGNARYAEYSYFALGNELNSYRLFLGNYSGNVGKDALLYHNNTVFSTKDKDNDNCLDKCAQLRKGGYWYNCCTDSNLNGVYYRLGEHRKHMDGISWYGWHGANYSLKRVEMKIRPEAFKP

T4: Pext-01 (huANGTPL7-FLAG multimer) (human, UniProt O43827 27-346)
T4 construct: also called PExt-1; human wild type ANGPTL7 multimer; not shown: FLAG tag
T4 sequence: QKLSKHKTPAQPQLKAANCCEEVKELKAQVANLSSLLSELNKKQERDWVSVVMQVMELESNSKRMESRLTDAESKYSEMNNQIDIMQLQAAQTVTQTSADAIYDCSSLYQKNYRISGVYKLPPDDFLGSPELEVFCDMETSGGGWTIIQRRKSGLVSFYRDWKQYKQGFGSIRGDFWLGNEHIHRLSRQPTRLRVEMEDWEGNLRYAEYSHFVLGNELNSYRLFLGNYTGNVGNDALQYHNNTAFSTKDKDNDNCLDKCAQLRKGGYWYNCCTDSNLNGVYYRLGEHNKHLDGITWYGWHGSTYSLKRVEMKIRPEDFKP

B1: ATX-P-448 (antibody, human IgG1, kappa, N297A, V domains shown)
VH: QVQLVESGGGVVQPGRSLRLSCAASGFPFSSYGMHWVRQAPGKGLEWVAVMSYDGINGYYADSVKGRFTISRDNSKNTLYLQMNSLRAEDTAVYYCARLVYADDAFDIWGQGTTVTVSS
VL: EIVLTQSPATLSLSPGERATLSCRASQSVSSYLAWYQQKPGQAPRLLIYDASNRATGIPARFSGSGSGTDFTLTISSLEPEDFAVYYCQQRSNWPLTFGGGTKVEIKR
notes: Full chains (VH + hIgG1-Agly-Fc)
B2: ATX-P-440 (antibody, human IgG1, kappa, N297A, V domains shown)
VH: EVQLVESGGGVVRPGGSLRLSCAASGFTFDDYGMSWVRQAPGKGLEWVSTINWNGGNTGYADSVKGRFTISRDNAKNSLYLQMNSLRAEDTALYYCARDEGAAGLGYYFDYWGQGTLVTVSS
VL: DIQMTQSPSTLSASVGDRVTITCRASQSISSWLAWYQQKPGKAPKLLIYATSSLQSGVPSRFSGSGSGTDFTLTISSLQPEDFATYYCQQSYSTPITFGQGTRLEIKR
notes: as for B1
B3: ATX-P-427 (antibody, human IgG1, kappa, N297A, V domains shown)
VH: EVQLVESGGGVVRPGGSLRLSCAASGFSFDDYGMSWVRQVPGKGLEWVSGINWNGGSTGYADSVKGRFTISRDNAKNSLYLQMSSLRAEDTALYYCASYSGSFRDAFDIWGQGTMVTVSS
VL: AIQMTQSPSSLSASVGDRVTITCRASQGIRNDLGWYQQKPGKAPKLLIYAASSLQSGVPSRFSGSGSGTDFTLTISSLQPEDFATYYCLQDYNYPYTFGQGTKLEIKR
notes: as for B1
B4: ATX-P-439 (antibody, human IgG1, kappa, N297A, V domains shown)
VH: not shown
VL: DIQMTQSPSSVSASVGDRVTITCRASQGISSWLAWYQQKPGKAPKLLIYAASSLQSGVPSRFSGSGSGTDFTLTISSLQPEDFATYYCQQANSFPWTFGQGTKVDIKR
notes: as for B1
B5: ATX-P-442 (antibody, human IgG1, kappa, N297A, V domains shown)
VH: QITLKESGPTLVKPTQTLTLTCTFSGFSLSTSGVGVGWIRQPPGKALEWLALIYWNDDKRYSPSLKSRLTITKDTSKNLVVLTMTNMDPVDTATYYCARDYGDYWFFDLWGRGTPVTVSS
VL: B2 VL with T10S, S28G, W32Y, T51A, Y92F, I96L, Q100G, R103K
notes: as for B1
B6: ATX-P-425 (antibody, human IgG1, kappa, N297A, V domains shown)
VH: EVQLVESGGGLVKPGGSLRLSCAASGFTFSTYSMNWVRQAPGKGLEWVSSITSSSSYMFYADSVMGRFTISRDNAKNSLYLQMNSLRAEDTADYYCARDSNWGEAFDIWGQGTMVTVSS
VL: DIQMTQSPSSLSASVGDRVTITCRASQGIRIDLGWFQQKPGKAPKRLIYAASSLPSGVPSRFSGSGSGTEFTLTISSLQPEDFATYYCLQHNSYPWTFGQGTKVEIKR
notes: as for B1
B7: ATX-P-424 (antibody, human IgG1, kappa, N297A, V domains shown)
VH: EVQLVESGGGLVKPGGSLRLSCAASGFTFSSYSMNWVRQAPGKGLEWVSSITSSSYIFYADSLKGRFTISRDNAKNSLFLQMNSLRAEDTAVYYCARDSNWGEAFDIWGQGTMVTVSS
VL: B6 VL with I31N, F36Y, T85I
notes: as for B1
B8: ATX-P-423 (antibody, human IgG1, kappa, N297A, V domains shown)
VH: QVQLVESGGGVVQPGRSLRLSCAASGFTFSSYGMHWVRQAPGKGLEWVSHITYDGSDKYYGDSVKGRFTISRDNSKNTLYLQMNSLRAEDTAVYYCAKDGYSSGWWYFDYWGQGTLVTVSS
VL: B6 VL with I31N, F36Y, P55Q, T72A, W96L, Q100G, V104L
notes: as for B1
B9: ATX-P-432 (antibody, human IgG1, kappa, N297A, V domains shown)
VH: QVQLVQSGAEVKKPGASVKVSCKASGYTFTDYYIHWVRQAPGPGLEWLGWINPNTGATKYAQKFQGRVTMTRDTSISTAYMELSRLRSDDTAVYYCAREDNGNYGDVFDIWGQGTMVTVSS
VL: not shown
notes: as for B1

Substitutions are numbered along the chain they refer to.

The target of the first experiment is T1, P60 (huANGPTL7-Fibrinogen-his). Briefly: BLI Octet HTX; IgG on AHC sensor; P60 at 200 nM; 1:1 fit. The method, then: ANGPTL7 Antibody Kinetics. Experiments were conducted to determine the reactivity and dissociation constants (KD) of anti-ANGPTL7 antibodies with the human fibrinogen domain of the ANGPTL7 protein. Binding experiments were performed on Octet HTX (ForteBio) in 1×PBS, pH 7.4, 0.1 mg/ml BSA, 0.05% Sodium Azide, and 0.02 Tween 20. Antibodies at a concentration of 50 nM were loaded on pre-hydrated AHC biosensors for 5 min. The loaded sensors were dipped into monovalent P60 (huANGPTL7-Fibrinogen-his) at a concentration of 200 nM for 5 min association, followed by 10 min dissociation. […] Responses (nm) at the end of association were also determined (Table 2).
Molecule B1 showed a Kd of 4.69 nM.
With B2, the Kd came to 55.8 nM.
B3 came in with a Kd of 65.1 nM and a Response of 0.5 nm.
On to B4, for which the Response amounted to 0.28 nm.
B5 gave a Kd of 4.62 nM and a Response of 0.69 nm.
For B6, the Kd was 305 nM.
For the molecule B7, the Kd amounted to 106 nM.
The molecule B8 returned a Kd of 18.3 nM.

The target of another experiment is T2, P66 (rabbit ANGPTL7-his). Description: BLI Octet HTX; IgG on AHC sensor; P66 at 200 nM; 1:1 fit. The method, then: (§1) Experiments were also conducted to determine the reactivity and dissociation constants (KA) of anti-ANGPTL7 antibodies with the rabbit ANGPTL7 protein. Binding experiments were performed on Octet HTX (ForteBio) in Rx PBS, pH 7.4, 0.1 mg/mi BSA, 0.05% Sodium Azide, and 0.02% Tween 20. Antibodies at a concentration of 50 nM were loaded on pre-hydrated AHC biosensors for 5 min. The loaded sensors were dipped into monovalent P66 (rabbit ANGPTL7-his) at a concentration of 200 nM for 5 min of association, followed by 10 min of dissociation. […] Responses (nm) at the end of association were also determined (Table 6).
B1 came in with a Kd of 0.949 nM and a Response of 0.75 nm.
Turning to B2, the Kd turned out to be 6.27 nM and the Response turned out to be 0.57 nm.
For the molecule B3, the Kd was determined as 3.21 nM and the Response stood at 0.93 nm.
For the molecule B4, the Kd was found to be 2.95 nM and the Response came to 0.92 nm.
As for B5, the Kd is 3.38 nM and the Response amounted to 0.95 nm.
In turn, B6 came in with a Kd of 2.38 nM and a Response of 0.95 nm.
On the same counts, the results for B7 are 4.65 nM and 0.93 nm.
Regarding B8, the Kd was determined as 6.69 nM and the Response was 1.02 nm.

The target in the next experiment is T3, muANGPTL7-his (R&D Systems). Briefly: BLI Octet HTX; IgG on AHC sensor; muANGPTL7-his at 200 nM. The method, then:
as §1, with “(KD)” for “(KA)”, “mouse” for “rabbit”, “1×PBS,” for “Rx PBS,”, “[…].” for “min.”, “muANGPTL7-his (R&D Systems)” for “P66 (rabbit ANGPTL7-his)”, “5).” for “6).”
For the molecule B9, the binding result is on record as “no binding (tested: 200 nM)”.
Same read-out and setting: the same measure for B7: “no binding (tested: 200 nM)”.
Consider B8, for which the binding result is listed as “no binding (tested: 200 nM)”.

The next experiment shares this target. Briefly: BLI Octet HTX; IgG on AHC sensor; muANGPTL7-his at 200 nM; 1:1 fit. The method, then: as §1, with “(KD)” for “(KA)”, “mouse” for “rabbit”, “1×PBS,” for “Rx PBS,”, “[…].” for “min.”, “muANGPTL7-his (R&D Systems)” for “P66 (rabbit ANGPTL7-his)”, “5).” for “6).”
(In general: BLI is a label-free optical method that tracks binding on a fibre tip over time.)
B1 came in with a Response of 0.69 nm.
Regarding B2, the Kd was 55.3 nM and the Response came to 0.21 nm.
On the same counts, the results for B3 are 10.3 nM and 0.48 nm.
For B4, the Response is 0.53 nm.
B5 came in with a Response of 0.32 nm.
B9: the Response came to 0.03 nm.
The same measure, in the same setting: the same measure for B7: 0.14 nm; for B8: 0.14 nm.

The next experiment addresses T4, Pext-01 (huANGTPL7-FLAG multimer). Briefly: BLI Octet HTX; IgG on AHC sensor; Pext-01 at 100 nM; 1:1 fit; apparent KD. The method, then:
Experiments were also conducted to determine the reactivity and dissociation constants (KD) of anti-ANGPTL7 antibodies with the human ANGPTL7 multimer protein. Binding experiments were performed on Octet HTX (ForteBio) in 1×PBS, pH 7.4, 0.1 mg/ml BSA, 0.05% Sodium Azide, and 0.02% Tween 20. Antibodies at a concentration of 50 nM were loaded on pre-hydrated AHC biosensors for 5 mi. The loaded sensors were dipped into Pext-01 (huANGTPL7-FLAG) at a concentration of 100 nM for 5 min of association, followed by 10 min of dissociation. […] Responses (nm) at the end of association were also determined (Table 7).
Consider B1, for which the Response was 0.58 nm.
Turning to B2, the Response was determined as 0.61 nm.
Regarding B3, the Response is 0.82 nm.
Turning to B4, the Kd amounted to 12.8 nM and the Response was found to be 0.87 nm.
In the case of B6, the Response came out at 0.83 nm.
For B7, the Response was found to be 0.76 nm.
Regarding B8, the Response came to 0.87 nm.

For the origin of these results see patent publication US20250296996A1 (BROADWING BIO, published 2025).
